The target in test [1] is T1, human NK1 receptor (human, UniProt P25103 1-407).
T1 construct: whole, on cells; Assayed as membrane preparations of transfected CHO cells; also called hNK1; human neurokinin-1 receptor
The test can be described thus: competition vs [3H]substance P, membranes of hNK1-transfected CHO cells.
T1 sequence (P25103 whole entry): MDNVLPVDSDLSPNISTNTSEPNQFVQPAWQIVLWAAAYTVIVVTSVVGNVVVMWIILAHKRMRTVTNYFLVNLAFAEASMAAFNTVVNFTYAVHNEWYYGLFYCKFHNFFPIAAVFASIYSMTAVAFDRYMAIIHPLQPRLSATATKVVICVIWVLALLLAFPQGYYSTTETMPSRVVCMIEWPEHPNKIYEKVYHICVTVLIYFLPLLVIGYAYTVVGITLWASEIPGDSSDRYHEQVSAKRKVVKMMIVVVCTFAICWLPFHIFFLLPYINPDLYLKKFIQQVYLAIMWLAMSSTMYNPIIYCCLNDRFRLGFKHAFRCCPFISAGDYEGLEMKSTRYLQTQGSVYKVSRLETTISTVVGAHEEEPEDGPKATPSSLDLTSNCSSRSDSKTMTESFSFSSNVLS

The target of test [2] is T2, rat NK1 receptor (rat, UniProt P14600 1-407).
T2 construct: whole, on cells; Assayed as membrane preparations of transfected CHO cells; also called rNK1; rNK-1
As to the kind of experiment: competition vs [3H]substance P, membranes of rNK1-transfected CHO cells.
T2 sequence (P14600 whole entry): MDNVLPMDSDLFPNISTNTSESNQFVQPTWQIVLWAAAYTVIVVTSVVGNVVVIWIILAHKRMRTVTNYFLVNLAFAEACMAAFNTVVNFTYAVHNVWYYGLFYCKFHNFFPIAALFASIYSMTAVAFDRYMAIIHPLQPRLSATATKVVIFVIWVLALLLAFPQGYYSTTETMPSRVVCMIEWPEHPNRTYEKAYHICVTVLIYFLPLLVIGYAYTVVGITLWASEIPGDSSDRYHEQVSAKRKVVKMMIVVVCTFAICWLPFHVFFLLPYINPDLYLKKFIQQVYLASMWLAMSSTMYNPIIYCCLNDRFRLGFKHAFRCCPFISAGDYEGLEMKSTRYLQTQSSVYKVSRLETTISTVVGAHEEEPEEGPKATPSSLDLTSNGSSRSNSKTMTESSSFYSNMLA

Test [3] has as its target T3, human NK1 receptor (human, UniProt P25103 1-407).
T3 construct: whole, on cells; membrane preparations of the transfected cells were used; also called hNK1; human neurokinin-1 receptor
As to the kind of experiment: competition vs [3H]Substance P, hNK1 CHO cell membranes.
T3 sequence (P25103 whole entry): as the sequence (P25103 whole entry) above

Test [4] has as its target T4, rat µ opioid receptor (rat, UniProt P33535 1-398).
T4 construct: whole, on cells; membrane preparations of the transfected cells were used; also called rMOR; MOR
As to the kind of experiment: competition vs [3H]DAMGO, rMOR cell membranes.
T4 sequence (P33535 whole entry): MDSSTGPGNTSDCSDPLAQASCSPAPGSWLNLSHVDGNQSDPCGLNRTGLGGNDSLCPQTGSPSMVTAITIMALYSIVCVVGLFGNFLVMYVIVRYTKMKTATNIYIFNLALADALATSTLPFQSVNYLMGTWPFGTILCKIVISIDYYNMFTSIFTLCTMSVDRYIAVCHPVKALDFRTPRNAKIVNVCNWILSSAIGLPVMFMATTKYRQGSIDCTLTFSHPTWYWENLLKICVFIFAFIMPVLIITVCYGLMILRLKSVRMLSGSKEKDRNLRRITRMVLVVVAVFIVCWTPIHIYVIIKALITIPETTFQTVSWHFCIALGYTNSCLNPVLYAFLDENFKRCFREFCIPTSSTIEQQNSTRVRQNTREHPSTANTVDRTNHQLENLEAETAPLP

Test [5] concerns the target T5, human δ opioid receptor (human, UniProt P41143 1-372).
T5 construct: whole, on cells; membrane preparations of the transfected cells were used; also called hDOR; DOR
The test can be described thus: competition vs [3H]DPDPE, hDOR cell membranes.
T5 sequence (P41143 whole entry, stated change not applied): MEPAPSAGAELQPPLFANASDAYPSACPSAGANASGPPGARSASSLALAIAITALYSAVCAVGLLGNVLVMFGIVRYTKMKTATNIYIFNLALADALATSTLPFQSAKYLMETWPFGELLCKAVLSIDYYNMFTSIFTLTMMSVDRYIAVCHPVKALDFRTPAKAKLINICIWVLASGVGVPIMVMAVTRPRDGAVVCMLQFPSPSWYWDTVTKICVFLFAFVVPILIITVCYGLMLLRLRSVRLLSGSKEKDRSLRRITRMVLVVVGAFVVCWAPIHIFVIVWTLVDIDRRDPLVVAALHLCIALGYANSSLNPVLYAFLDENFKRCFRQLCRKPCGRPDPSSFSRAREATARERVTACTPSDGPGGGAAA

For test [6], the target named is T3, human NK1 receptor. As to the kind of experiment: competition vs [3H]Substance P, hNK1 CHO cell membranes. This is another data set of the same source.
Test [7] addresses T5, human δ opioid receptor. The test can be described thus: cell-based or functional assay.
For test [8], the target named is T4, rat µ opioid receptor. As to the kind of experiment: cell-based or functional assay.
The target of test [9] is T6, rat NK1 receptor (rat, UniProt P14600 1-407).
T6 construct: whole, on cells; membrane preparations of the transfected cells were used; also called rNK1; rNK-1
As to the kind of experiment: competition vs [3H]Substance P, rNK1 CHO cell membranes.
T6 sequence (P14600 whole entry): as the sequence (P14600 whole entry) above

Test [10] deals with T7, human δ opioid receptor (human, UniProt P41143 1-372). As to the kind of experiment: cell-based or functional assay. This is another data set of the same source.
T7 sequence (P41143 whole entry, stated change not applied): as the sequence (P41143 whole entry, stated change not applied) above
Test [11] deals with T7, human δ opioid receptor. The test can be described thus: competition vs [3H]DPDPE, membranes of hDOR-transfected HN9.10 cells.
For test [12], the target named is guinea pig NK1 receptor (guinea pig, UniProt P30547 1-407). As to the kind of experiment: cell-based or functional assay.
Target sequence in this assay (P30547 whole entry): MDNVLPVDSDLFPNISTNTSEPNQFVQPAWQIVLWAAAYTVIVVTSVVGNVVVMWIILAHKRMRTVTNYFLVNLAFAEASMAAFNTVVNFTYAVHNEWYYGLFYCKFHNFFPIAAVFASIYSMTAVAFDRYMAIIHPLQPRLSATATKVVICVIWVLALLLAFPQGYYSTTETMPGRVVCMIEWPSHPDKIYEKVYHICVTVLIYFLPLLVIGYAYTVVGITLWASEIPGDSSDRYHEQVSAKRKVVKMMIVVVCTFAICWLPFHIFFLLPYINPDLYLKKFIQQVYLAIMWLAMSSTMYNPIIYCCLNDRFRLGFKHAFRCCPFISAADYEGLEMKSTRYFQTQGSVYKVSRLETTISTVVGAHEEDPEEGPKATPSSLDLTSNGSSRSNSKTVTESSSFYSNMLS
The target of test [13] is µ opioid receptor of the guinea pig isolated ileum (guinea pig). As to the kind of experiment: cell-based or functional assay.
Test [14] deals with T6, rat NK1 receptor. As to the kind of experiment: competition vs [3H]Substance P, rNK1 CHO cell membranes. The source holds these as a separate data set.
For test [15], the target named is guinea pig NK1 receptor (guinea pig, UniProt P30547 1-407). As to the kind of experiment: cell-based or functional assay. This is another data set of the same source.
Target sequence in this assay (P30547 whole entry): as above
Test [16] concerns the target µ opioid receptor of the guinea pig isolated ileum (guinea pig, UniProt P97266 1-98). As to the kind of experiment: cell-based or functional assay.
Test [17] has as its target T5, human δ opioid receptor. As to the kind of experiment: cell-based or functional assay. This is another data set of the same source.
Test [18] concerns the target T5, human δ opioid receptor. As to the kind of experiment: competition vs [3H]DPDPE, hDOR cell membranes. The source holds these as a separate data set.
In test [19] the target is T2, rat NK1 receptor. As to the kind of experiment: competition vs [3H]substance P, membranes of rNK1-transfected CHO cells. This is another data set of the same source.
The target in test [20] is T8, rat µ opioid receptor (rat, UniProt P33535 1-398).
T8 construct: whole, on cells; Assayed as membrane preparations of transfected cells; also called rMOR; MOR
The test can be described thus: competition vs [3H]DAMGO, membranes of rMOR-transfected HN9.10 cells.
T8 sequence (P33535 whole entry): as the sequence (P33535 whole entry) above

For test [21], the target named is T8, rat µ opioid receptor. The test can be described thus: cell-based or functional assay. This is another data set of the same source.

One may read the Ki as the equilibrium dissociation constant of an inhibitor or competing ligand from its target. High values mean lower affinity, low ones higher affinity. In general, IC50 refers to the concentration needed to halve the response being measured.

Where two headings read alike, the source gives them in different places. Square brackets hold non-standard residues; d marks the D form. Primed or numbered codes have the meaning given here. Ends that are not written are not given here. * marks the point of attachment. NH(3,5-(CF3)2-benzyl) = FC(F)(F)c1cc(CN*)cc(C(F)(F)F)c1; OBzl(3,5-(CF3)2) = FC(F)(F)c1cc(CO*)cc(C(F)(F)F)c1; O‑Bzl(CF3)2″ = C-terminal Bzl(CF3)2 ester; Aib = CC(C)(N)C(=O)O

µ opioid receptor of the guinea pig isolated ileum, sequence (P97266 whole entry): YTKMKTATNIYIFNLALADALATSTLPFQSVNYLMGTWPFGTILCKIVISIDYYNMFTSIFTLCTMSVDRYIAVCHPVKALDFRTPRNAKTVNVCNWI

In turn, H-Y[dA]GFPLW-{NH(3,5-(CF3)2-benzyl)} (also: TFA salt, TFA salt; also called TY012) [H-Tyr-D-Ala-Gly-Phe-Pro-Leu-Trp-NH-3,5-Bzl(CF3)2] showed a Ki in the test with human NK1 receptor [1] of 0.61 nM. In the test with rat NK1 receptor [2], the inhibition constant Ki is 33 nM and the LogIC50 was -7.

B1: DmtDAlaGlyPheNleProLeuTrpNHBn(CF3)2 (peptide)
peptide: YAGFXPLW
modifications: Dmt at 1 (written Y); D-Ala at 2; Nle at 5 (written X); C-terminal NH-3,5-Bzl(CF3)2 amide
notes: also called TY050
B1: the affinity in the test with human NK1 receptor [3], expressed as Ki, was 0.075 nM.

B2: Tyr-DAla-Gly-Phe-γ-Abu-Trp-O-Bzl(CF3)2 (peptide)
peptide: Y[dA]GFXW-{O‑Bzl(CF3)2}
modifications: not fully specified (residue 5); printed as Tyr-DAla-Gly-Phe-γ-Abu-Trp-O-Bzl(CF3)2
notes: also called NP34
As for B2, the Ki with rat µ opioid receptor [4] turned out to be 2.2 nM; with human δ opioid receptor [5], 25.4 nM; with human NK1 receptor [6], 0.001 nM; in the test with rat NK1 receptor [9] it was 7.4 nM. Moreover, the entries for the “GTP EMax” value with human δ opioid receptor [7] and in the test with rat µ opioid receptor [8] were 40 and 27, respectively.

B3: H-Tyr-D-Ala-Gly-Phe-Nle-Pro-Leu-Trp-O-3,5-Bzl(CF3)2 (peptide)
peptide: YAGFXPLW
modifications: D-Ala at 2; Nle (norleucine, written X) at 5; C-terminal 3,5-bis(trifluoromethyl)benzyl ester
notes: TFA salt; also called TY018
As for B3, in the test with human δ opioid receptor [10], the “[35S]GTP-γ-S binding EC50” value came out at 4 nM, the “[35S]GTP-γ-S binding Emax” value stood at 129% and the “[35S]GTP-γ-S binding LogEC50” value is -8.4. Moreover, in the test with human δ opioid receptor [11], the Ki is 1.8 nM and the LogIC50 is -8.42. Further, in the test with guinea pig NK1 receptor [12], the “Substance P GPI antagonist Ke” value stood at 7.9 nM. Moreover, in test [13], the “GPI (µ) opioid agonist IC50” value is 372 nM.

In the case of Y[dA]GF[Aib]W-{O‑Bzl(CF3)2″} (also called NP41) [Tyr-DAla-Gly-Phe-Aib-Trp-O-Bzl(CF3)2], the Ki with rat µ opioid receptor [4] is 13.3 nM; in the test with human δ opioid receptor [5], 24.2 nM; in the test with human NK1 receptor [6], 0.008 nM; with rat NK1 receptor [9], 3.4 nM. For the same molecule, the “GTP EMax” value was 65 in the test with human δ opioid receptor [7] and 36 in the test with rat µ opioid receptor [8].

For H-Y[dA]GFPLW-{OBzl(3,5-(CF3)2)} (also: TFA salt, TFA salt; also called TY001) [H-Tyr-DAla-Gly-Phe-Pro-Leu-Trp-O-3,5-Bzl(CF3)2], in the test with human NK1 receptor [1], the Ki amounted to 0.0023 nM and the LogIC50 is -11.3. In the test with rat NK1 receptor [2], this molecule registered an inhibitory constant (Ki) of 1.6 nM and a LogIC50 of -8.3.

Regarding YAGFMPLW (D-Ala at 2; Met(O) at 5; C-terminal O-3,5-Bzl(CF3)2 ester, also called TY023) [TyrDAlaGlyPheMet(O)ProLeuTrpOBn(CF3)2], the half-inhibitory concentration (IC50) with rat NK1 receptor [14] stood at 54.5 nM. In addition, the “GPI/LMMP SP antagonist Ke” value with guinea pig NK1 receptor [15] amounted to 7.8 nM. In [16], the “GPI/LMMP IC50” value turned out to be 154 nM. In the test with human δ opioid receptor [17], the “GTP binding Emax” value amounted to 52.8%. The Ki with human δ opioid receptor [18] worked out at 5.1 nM.

In the test with rat NK1 receptor [19], H-Y[dA]GFLPLW-{OBzl(3,5-(CF3)2)} (also: TFA salt, TFA salt; also called TY004) [H-Tyr-D-Ala-Gly-Phe-Leu-Pro-Leu-Trp-O-3,5-Bzl(CF3)2] displayed a half-maximal inhibitory concentration (IC50) of 20.9 nM and a LogIC50 of -7.7. In addition, in the test with rat µ opioid receptor [20], the affinity, expressed as Ki, was 23.3 nM. In addition, in the test with rat µ opioid receptor [21], the “[35S]GTP-γ-S binding Emax” value was 46%. Further, in the test with human δ opioid receptor [10], the “[35S]GTP-γ-S binding EC50” value was found to be 9.6 nM, the “[35S]GTP-γ-S binding Emax” value was determined as 44% and the “[35S]GTP-γ-S binding LogEC50” value was -8.09. In the test with human δ opioid receptor [11], this molecule showed a Ki of 5 nM and a LogIC50 of -7.97. Moreover, the “Substance P GPI antagonist Ke” value in the test with guinea pig NK1 receptor [12] worked out at 19.4 nM. The “GPI (µ) opioid agonist IC50” value in test [13] worked out at 341 nM.

In turn, H-Y[dA]GFPLW-{NMe‑Bn(CF3)2} (also: TFA salt, TFA salt; also called TY013) [H-Tyr-D-Ala-Gly-Phe-Pro-Leu-Trp-NMe-3,5-Bzl(CF3)2] returned a LogIC50 with human NK1 receptor [1] of -8.5. The molecule further came in with a Ki in the test with rat NK1 receptor [2] of 6.1 nM.

B4: DmtDAlaGlyPheNleProLeuTrpNHBn-3-(CF3) (peptide)
peptide: YAGFXPLW
modifications: Dmt at 1 (written Y); D-Ala at 2; Nle at 5 (written X); C-terminal NH-3-Bn(CF3) amide
notes: also called TY053
Regarding B4, affinity with human NK1 receptor [3] was put at a Ki of 1.04 nM. That is a single-digit nanomolar value.

(Values after patent US8026218 (UNIVERSITY OF ARIZONA, dated 2011).)
